In IntAct's records for PubMed 25843002:

Target: tr10b_human TNFRSF10B (UniProt O14763)

Ras-related C3 botulinum toxin substrate 1 (Homo sapiens) (from UniProt P63000) T17N
effect of a mutation on the interaction: decreasing interaction strength
